Experimental data published in paper doi:10.1101/2025.11.27.690993.

Molecular target: SroF^Phi3T, master repressor of phage Phi3T (recombinant) (Bacillus phage Phi3T)
Experiment: BLI

“Sar^Phi3T, shorter annotation lacking the first 10 amino acids (recombinant) (natural protein)” was tested, and the Kd was 21.7 nM.
